Data as given in the domain aggregation screens of Martell et al. (2025).

Test: soluble fraction after stress (log2 fold change); higher = more stays soluble; pooled small domains, quantitative proteomics
Conditions: stress: 50 degC
Summary of the method: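 The measure of aggregation propensity here is the base-two logarithm of the fold change in the soluble amount of each protein after stress. A higher value means more of that protein stays in solution. Stress was applied at 50°C to pooled libraries of small protein domains, read out by high-throughput quantitative proteomics.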

Row | Sequence | soluble fraction (log2)
1 | HMADPVTPQDLIRWSEALAGIARTGLGFTQSLYEQERFEEVLAVAADMRVAAGSSYNPDDLVHEWMKSVG | -0.292
2 | HMSGGNTSAFKGKLNYEYRGNDTIITGSTYPVKELIKKAGGRWDPGSSAWIIKGRHVSDNEIF | 0.171
3 | HMTVRLSVSADGKFFWNESQVSEEELFPRLQAEAAKEPQPDLHIRGDKNVRYEFVAQAMAAAQRAGVRKI | -0.404
4 | HMNAMFEKVLAAVMGFIGVSAFAKNADGKSEMTSDQEKRLTDKWGSKFVEEFKNDLLEYEKNGNAAEDAV | -0.264
5 | HMQPVEHLPTTDPLTTSAASEHERYEKVRWWLEEMQRTYETGDEVRAERIRLSLIEQMYKWEGE | -0.185
6 | HMTIKLFPNPSTDFIRVSELSAKENYKIYTILGSEIKRGSVSNNETIDIRNLNSGVYLLKFDNGTTKKIVK | -0.886
7 | HMGEGRVRLAQEAANRFMTAMAGDRPGFEEAGRALFAGDRARFHAETEGWPEDIRDHARRLAEPALQ | 0.0288
8 | HMRSASFDIMSQKQSDATLGYERVYDTETNEVYKAYNGFTDDYDGERYKSISDNMYTKGISGYIEK | 0.327
9 | HMGVPTEQQSLIGKSGIAATDLRPSGKVEIDGKRYDAVSNYAGFIAKGTPISVVRYETGQIYVE | 0.0415
10 | HMLRPEEMIYHEMLDAILDRRLEPGMKLVEEDLAKTFGVSRARIRATFLQLAHDKLINLVPNRGAFVAEP | -1.77
11 | HMTQPAEINRLVEQMGSSDYKSRQEAYERLHQMGPGILDLIYPYRNHADPEIQTRVRELILSYRW | 0.264
12 | HMKQNSDDGEIRKIIIEILDNNLDNVNKYKSGRTNVLDFFVGQVMKQTRGQANPELTRSILTEELSN | 0.0594
13 | HMNATQLSNTQKQIRTQLLERLSNNPLTVKQLADRMFVPIDTILKEITALIQEQKIIEDKGGKLQIN | 0.0217
14 | HMEVPTGNHIRRWRKSLDITQVKLSSLSGVAQSIIAKIENETVDPRVSTLRKLVEALSRFENP | -1.89
15 | HMVAGQDPVKRQQILDGAKRVFLGVGFDAASMNDITREAGVSKGTIYVYFGSKEELFGALIDR | -0.663
16 | HMKPDIETQLKKYRYKVSVSKKIKPYMVFSDKTLSELLTKSPTNLKELEDINGFGPVKVQEYGAAILEILK | -0.777
17 | HMTGPSYTTRRVEAAETMMEFLRTFPQAAPFIGDLYVKAQDWPLGEEIGDRLKKMLPPQLQE | -0.519
18 | HMTMNLIEIGHVVGARRAELGLTQAQLAHLSGLSRQTVVGLEKGTLSDLGVNRVGQVMAVLGLDS | -0.51
19 | HMDEGQEHYVKETDLPFYSEADPASSVIFPLVLNQKLIEKERKDDWIRALEPTTGLVGWVLLKSLSPQQLS | 0.124
20 | HMASDQGAGALREVSAFFEKHGRVPDPDAVDHDEMRLGSIWASIKSAPTDQMRLEDRFGLLD | 0.1
21 | HMDSFEEGTYRKNQRGFGFVKIENQEDEIFISKENSLNALNGDRVIVEIIEDKDRTKRAEGKIKKILKHE | 0.201
22 | HMSTLTGTQRAAVVLMQMSPPNAARVMAQFTDAEAEEIAAEIVRLRKVDPEVAEQIMKDFHEAALSS | -0.252
23 | HMNDREAAYEDLPDELVRVGQKVFIKSLETEGVIVQPPNKKGEVRVRSGNISTNVKRSDLGLPIEKP | 0.129
24 | HMQNYTTIIGVIELRLNDISYDNVRKRYHIGRSGITLIMDRYRDSGLSLEDLKQMTPEKVVDLFYPR | -2.3
25 | HMSIYQYFNISEINSIDDLKKQYFKLAKKYHPDAGGDKVSFQELQNEYEQLTKKILSGAELNADELKTE | -0.109

Row | Sequence | soluble fraction (log2)
26 | HMQDVVERIKKYKQLFSITSEELSKRSGIPLGTLNKILSSSTKSIKTETLAAIAKGLDVSVSDLVGREK | 0.0602
27 | HMDFDQELFDKIVEATMDEARAAMDTDDKNVREERWNKLIEHWHELFLEDYPEMDKYLEEITYKFQKNPAT | -0.302
28 | HMGSFFSKATAPVRTTGGDGLYKHGSIWFNTSTGRLFVYIPDDRYTGLLDTHNGDIGYWVDVS | -2.2
29 | HMAKRYFVTTGVRVRTKPDTANSEVLTVLDEGSEIDYKGDYNNEWVKINYNGQEAYIAKQYVRSEE | -0.377
30 | HMRLTIAQLSEKTGVPERTIRYYIDRGLVPSAHGERRGAWYDTVHLEPLLRIQQWREAGLSLEAIADLLR | -1.19
31 | HMNAVYPNPFVSEIYIGENNRSVEIYNLNGGLVYGMSQPSSRIDVSGLAAGSYILIKKDSSGHISSHKIMK | 0.0698
32 | HMPDPLVEIRSAVHSNYAGMIAMLGADNRVYLGREEHYSYQDGQPGQYDNRDGSLLFVSDQPDIYYFL | -1.44
33 | HMLLTDGLERRIDGDKNLHIRISLPMLVKGQIKLAKSGNNESTVKGIFKIESYPGSHPRDVVTEIIEG | -0.0938
34 | HMEDYTPLQELGLKARYIELLEKGGIFSVEDLVQKSVDDLKDIDGIGEKTAKEIWEIVDSMVDF | -0.137
35 | HMKKTETVRFTTNVTHGTKIKETDVEVVKISNSALPDKVVKNKTEVIGKYATADLFKGDFATENKVTD | 0.0533
36 | HMISIKEAVFPFSRFPGVDTLLGPEMKSTGEVMGLADNFGHAYAKSQIASGSKLPESGTLFVSVKNSD | -0.309
37 | HMQKMPEMQILPNGKVKLPDFSGINMRKAAELLQYGKLRLQPYGSGTAYQQKPAAGTEVDEGTVVEIWF | -0.218
38 | HMKLPNGYGGIAKLSGKRRNPWRVRVTKGWSVDEQTGKAKQLFSTLGYYPTRKDALAALSAYNQNP | -0.942
39 | HMEKLNERLLYLRKNANLTQQQLADKLHISNKTISQWETGRTLPDIVMLVRLAEIYDMKLDELLNQ | -0.29
40 | HMDGYTAVDKAVSDQYYTKENQLYFVSMGNFFSLGAKKIEGADISSFQILTTEYARDLQHLYFNGKV | -0.383
41 | HMVMSVGENIAYFRKKLGLTQEMLSERIGVTAQAVSKWENGVTNPDISLLPRISEALGIGIGDLFD | -0.299
42 | HMKKDRKKMLKEGIVLFEKILRGMELSPTSEPLKKVLTSFNIQNKEDLYVKLGAGVISSEEVIKELKKK | 0.183
43 | HMGDHYTALGLSIDATPEEIRSAYFLAARRSHPDANPDAQTTEWFLRVQEAYDILSNPRRRAEYDASLP | -0.554
44 | HMGNKDIEILFSEIVEMRNRIIHGFRITSKQGEQILATKTRKKDGNIQFEITKEYLLDFIKKNEELSDMLY | -2.23
45 | HMDAKSRFQEWVQAETGITPTYRIIGDSGPDHAKTFIAQVLLGERVVGEGVGSSKRAAEQAAAQAALAAM | 0.186
46 | HMSVLRLGNRGPDVRKLQLLLNSTLVPSPQLTVDGDFGKRTEQAVVTFQQMRGLPQDGIVGQRTWALLGQT | -0.518
47 | HMNLSDIETWLRELSLEKYALAFSEAEIDFETLPELTEDDLKEVGLPVGPRRKVWGAIQLLRTTD | -1.42
48 | HMSPSTNKTFSFSKENISIGQTVFIKKLNQNATVLTLPNKSNQLQVQFGVITMNVKLEDLALPTN | -0.171
49 | HMKRITKKELKQAIVDVFADKPGQSFNYKQLATIIGIKDDPTRRMITDILYELVQEERIVELYRGKFKMEM | -0.66
50 | HMIQSEQIPFSKFLKEVDSGRVVQVEIQGNNINGVLSDGSKFKTYSPNYPELVGKLSDKGVSIVASPV | 0.106

Row | Sequence | soluble fraction (log2)
51 | HMAAADLNMRAKLADLGGMSYGELSIWEKTHGMEFAAWEHEWEKLNSGTQADGLKFPKHLPEGFPT | 0.0468
52 | HMASFGDLSGLKRTYPPQGLPDASRIADFLIARNEGDLSVEQVKALERFLFEHPDHERTARLVAATRVPA | -0.0263
53 | HMEVTLEEKLSYVEEYAKVHSHFSFRDLLKKQASKTQIVVTFLAILELMKTGKIQITQEHIFDDIVITAK | -0.0755
54 | HMGNEEEEAIREAEEAIERVLEYGEPQELNPQNGFIRRLQHQLAEKSHLSSESVGVEPYRRVRISK | 0.185
55 | HMQPAALEAQVIKLVRLHAPIKARQLATILANEFGQHVDRSTVNSLLYQLRAQGKVAQNAAYQWSLT | -0.65
56 | HMGNNTEITYSEFIRQAEAGNVQYVTVDGEKLLISATDGKSYYTINPRDDQMTDRLLNSGVEIRAEPQ | 0.101
57 | HMRDLITYVVQINGKLRGKLEVAPDTDPEELKALALEVENVKRSLEGWVVKKVIVVPGKMVSIAAG | -0.193
58 | HMNSVLPQEVKSSLNDFFTKYAPGSIAQKLINHASFTGGKVVVTGVELTQTQADDLKKAFKDKFF | 0.000827
59 | HMNDEQFAIAKNDLLLSLYDGKEVNNSAAEYIIAWESLEKSPSDYISSQLKNTAESIIKISFD | 0.0499
60 | HMRSKTDLVYEEIKKLILRGELSSDTPISENHLARRFEISRTPIREALKRLHIEGFVRIIPNHGVFVR | -0.343
61 | HMGKKIVERRNTILNMVNKYGTLDFPQLRDAFPDVSDVTLRKDLQYLDSTKQAIRTHGGIKSI | 0.0534
62 | HMIQADFIPQVEQRLADRGLSMSGDVMAAFLDRAGYGLRHVSNEIEKLSLYLGDRKKVTVEDVVQMVAPVR | -0.283
63 | HMSVSVNAPMPGNILDVRAKTGESIQKGQVIVILEAMKMENEIMAPQDGKISSINTSKGSTVNSGDLLFTM | -0.155
64 | HMEWNPEKQHLLENYITNYSRQLNDTGLFYKNLDWNYIFNLVGVDDQEFLMLKIDEIYDESINVY | -0.521
65 | HMKKIYEEVSEAILTMIKNGTLKPGDKLLPVHQLAEQFQVGRSAVREALSALRAMGLIEMKQGEGTYVKNF | -0.462
66 | HMQPPLTPRELGVLQWAAEGKTTRDTSAILQIHQRTVEMHLKSAREKLDALNTTHAVARALAHGFILPPS | -0.0855
67 | HMTATIEEVNELTQSARVNINVPYAAKDEAKAYGAKWDDVERTWYTTGENYAQNKDFFDGFNPTAS | 0.156
68 | HMNQIATSTQAIITTLSFLNTSSIFKLPVGDTASRPTGVSPGTLRFNSQEDSAEIYKADDGTGSAGWTEVA | 0.0743
69 | HMEGNAFASTGDPEADILDITAVHPMRRDAVEELLARSGAEWSLVEGMLRDGKITMAPWEGEEFFIRS | 0.0467
70 | HMDEYILTLDEVKELLKSKDYDDLKNVLKWSNKFQKDTIIQTAISEKVSDANVINIIKEITGQDITSLIV | 0.0322
71 | HMITLYDLLGVSKTASSQEIKTAFKKKALQYHPDKNDGNPDKEEIFKRINMAYQVLGQPQSRANYDFSITP | -0.321
72 | HMDVPTEEAILAYNNVPIELAAKFIGWSDITIRYALQEERAPFGMAAQNPKTGTWSYNISPGLLLKYKSGE | -2.11
73 | HMHLEKGEVVVPDLKGLTMRQVGELLGKLNLRYSFSGTGLAVKQFPESGQIVNQGDIIEVIF | -0.138
74 | HMGEDPYQMLGLTRQASDEEVRLAWRKLMRENHPDSLASRGVPQEFVKRATEQVAQINAAWDRIKRERG | 0.0386
75 | HMNIDKLVGSTGTVVRSVTPDTAGLVRVNDEDWRASAEEILYERDAIVVEGIEGVTLIVSKLS | -0.43
